{"source": "paper PMC11255602", "about": "(Protein Science : A Publication of the Protein Society, 2024)", "proteins": {"B1": {"name": "tetramer interface mutant (TIM) PRMT1 Y262A/Y304A/L341A (enzyme, human (rat sequence humanized by H161Y), UniProt Q99873-3 1-353, looked up)", "chain": "MAAAEAANCIMEVSCGQAESSEKPNAEDMTSKDYYFDSYAHFGIHEEMLKDEVRTLTYRNSMFHNRHLFKDKVVLDVGSGTGILCMFAAKAGARKVIGIECSSISDYAVKIVKANKLDHVVTIIKGKVEEVELPVEKVDIIISEWMGYCLFYESMLNTVLYARDKWLAPDGLIFPDRATLYVTAIEDRQYKDYKIHWWENVYGFDMSCIKDVAIKEPLVDVVDPKQLVTNACLIKEVDIYTVKVEDLTFTSPFCLQVKRNDAVHALVAYFNIEFTRCHKRTGFSTSPESPYTHWKQTVFYMEDALTVKTGEEIFGTIGMRPNAKNNRDLDFTIDLDFKGQACELSCSTDYRMR"}, "B2": {"name": "H293A/E153A (HE) PRMT1 (enzyme, human (rat sequence humanized by H161Y), UniProt Q99873-3 1-353, looked up)", "chain": "B1 chain with E153A, A262Y, H293A, A304Y, A341L"}, "B3": {"name": "tetramer interface mutant 2 (TIM2) PRMT1 H64A/R66A/H278A (enzyme, human (rat sequence humanized by H161Y), UniProt Q99873-3 1-353, looked up)", "chain": "B1 chain with H64A, R66A, A262Y, H278A, A304Y, A341L"}}, "note": "Where a chain is given by its changes, count along the chain named. Names and notes keep the numbering of the source.", "data": [{"target": "the molecule itself", "assay": "native gel or EMSA", "values": [{"protein": "B1", "stoichiometry N": 2}, {"protein": "B2", "stoichiometry N": 4}, {"protein": "B3", "stoichiometry N": 2}]}]}
